In the supplement of paper PMC9732359:
± gives the uncertainty stated by the source.

Assay: protein stability index of a GFP-peptide fusion (yeast GPS) (PSI 1-4); higher = more stable; sorted into four equal gates, so the index is relative within each strain
How it was run: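 Tiled 17-residue yeast protein peptides were fused downstream of GFP in a plasmid that also expresses Cherry, and the pooled library was carried in yeast. Mid-log cultures in leucine-free medium were sorted into four equal gates by GFP/Cherry fluorescence ratio, and plasmids from each gate were PCR-amplified and Illumina-sequenced, with reads assigned to strains by barcodes. The protein stability index for each peptide was each gate's read frequency times its gate number, summed.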

Sequence | protein stability index (doa10∆) | protein stability index (pdr5∆) | protein stability index (san1∆) | protein stability index (ubr1∆)
RDKKEKKQAQKQTKLRK [SMB1] | 3.43 ± 0.072 | 3.53 ± 0.072 | 3.25 ± 0.076 | 3.4 ± 0.045
WLKNKFAEENITHKLTK [BRR2] | 3.13 ± 0.085 | 3.03 ± 0.06 | 2.85 ± 0.047 | 3.01 ± 0.078
AASKVKLEEESKRGNDK [RPC53] | 3.27 ± 0.089 | 3.41 ± 0.098 | 3.38 ± 0.071 | 3.25 ± 0.064
KNATDLQQAKLRESEIS [SMC3] | 3.17 ± 0.073 | 3.15 ± 0.071 | 3.11 ± 0.085 | 2.97 ± 0.068
KSLKNNFYRPLLRSVLV [YML103C/NUP188] | 1.94 ± 0.051 | 1.87 ± 0.075 | 2.04 ± 0.085 | 2.29 ± 0.051
GVERLIPVGDNTVVGIS [PRE4] | 2.96 ± 0.089 | 2.91 ± 0.081 | 2.84 ± 0.064 | 2.69 ± 0.086
KKGESEKDASGKPSFVF [YOR098C/NUP1] | 2.19 ± 0.066 | 2.32 ± 0.1 | 2.32 ± 0.15 | 2.23 ± 0.073
LKRNSWPKTRGVAMNPV [RPL2A] | 2.95 ± 0.18 | 3.32 ± 0.2 | 3.2 ± 0.16 | 2.83 ± 0.085
MNEMCKKINAKEKLIGW [RPN8] | 2.86 ± 0.043 | 3.13 ± 0.056 | 3.03 ± 0.046 | 3.08 ± 0.031
NAEATKEEFSSAENRDE [CSE2] | 3.14 ± 0.082 | 3.25 ± 0.086 | 3.35 ± 0.059 | 3.28 ± 0.069
VIWELDDSANIVNVNFM [DIS3] | 2.96 ± 0.049 | 2.85 ± 0.057 | 3.21 ± 0.042 | 2.99 ± 0.045
LKRLAWQYIVIDEAHRI [ISW2] | 1.77 ± 0.077 | 1.78 ± 0.1 | 2.45 ± 0.077 | 1.13 ± 0.09
RIARALKQEGAANKTVV [RPL18A] | 3.44 ± 0.22 | 3.39 ± 0.095 | 2.95 ± 0.15 | 3.33 ± 0.052
TSTGIIRCHREDCDLVI [POP5] | 2.67 ± 0.071 | 2.96 ± 0.077 | 2.71 ± 0.075 | 2.56 ± 0.066
DGNNEIFTCQIMNLITN [RPN4] | 2.09 ± 0.083 | 2.62 ± 0.18 | 2.35 ± 0.2 | 2.35 ± 0.25
IHGELKTYKEGINKNEE [SMC1] | 2.94 ± 0.075 | 3.09 ± 0.051 | 2.87 ± 0.055 | 3.01 ± 0.046
LKTDGVRAVSITSFGFG [FAS2] | 1.44 ± 0.067 | 2.15 ± 0.099 | 1.5 ± 0.11 | 1.41 ± 0.05
LLNRIPRMYHIGLRQFQ [POP1] | 2.09 ± 0.099 | 1.51 ± 0.077 | 1.72 ± 0.18 | 1.3 ± 0.11
SKTVKVLKTLIEKFEQV [RPN6] | 2.27 ± 0.2 | 3.25 ± 0.1 | 3.07 ± 0.11 | 2.83 ± 0.07
YSLRLINKEIFHHWLVE [SRB8] | 1.75 ± 0.064 | 1.52 ± 0.081 | 1.55 ± 0.13 | 1.59 ± 0.068
RAPQQSVLQLFQSVQLN [SMC2] | 2 ± 0.05 | 1.98 ± 0.044 | 2.24 ± 0.051 | 1.91 ± 0.034
SIKEHSTTMDGANDLGF [MED1] | 2.53 ± 0.14 | 2.8 ± 0.073 | 2.15 ± 0.28 | 2.86 ± 0.09
DDDTFSDREMAALIASK [RPN2] | 1.6 ± 0.079 | 1.55 ± 0.056 | 1.32 ± 0.12 | 1.79 ± 0.063
QDVAAKCKEVGITAVHV [RPS14B] | 2.44 ± 0.059 | 2.7 ± 0.068 | 2.8 ± 0.065 | 2.18 ± 0.037
EYYAKKRAFTKKVASAN [RPL16A] | 2.06 ± 0.081 | 1.7 ± 0.063 | 1.69 ± 0.11 | 1.57 ± 0.059
LQGISTLRPRQYATVSK [RPL34A] | 2.59 ± 0.13 | 2.75 ± 0.13 | – | –
THTEQNNPPKPQKPVPL [SNF2] | 2.88 ± 0.08 | 3.34 ± 0.094 | 3.12 ± 0.049 | 3.15 ± 0.057
